Article PMC8405998, “Catalytic mechanism of ancestral L-lysine oxidase assigned by sequence data mining” (The Journal of Biological Chemistry, 2021)

Key:
N=C(N)NCCC[C@H](N)C(=O)O = assay: purified protein; settings: 100 mM Bis-Tris-HCl pH 7.0, O2 as co-substrate
AncLLysO = molecular target: T1, AncLLysO (synthetic construct, UniProt Z9DQU9YC40); assay: X-ray crystal structure, […]-2.[…] Å; type: binding; settings: substrate-free form; crystals at pH 7.5
T1 sequence (Z9DQU9YC40 1-589): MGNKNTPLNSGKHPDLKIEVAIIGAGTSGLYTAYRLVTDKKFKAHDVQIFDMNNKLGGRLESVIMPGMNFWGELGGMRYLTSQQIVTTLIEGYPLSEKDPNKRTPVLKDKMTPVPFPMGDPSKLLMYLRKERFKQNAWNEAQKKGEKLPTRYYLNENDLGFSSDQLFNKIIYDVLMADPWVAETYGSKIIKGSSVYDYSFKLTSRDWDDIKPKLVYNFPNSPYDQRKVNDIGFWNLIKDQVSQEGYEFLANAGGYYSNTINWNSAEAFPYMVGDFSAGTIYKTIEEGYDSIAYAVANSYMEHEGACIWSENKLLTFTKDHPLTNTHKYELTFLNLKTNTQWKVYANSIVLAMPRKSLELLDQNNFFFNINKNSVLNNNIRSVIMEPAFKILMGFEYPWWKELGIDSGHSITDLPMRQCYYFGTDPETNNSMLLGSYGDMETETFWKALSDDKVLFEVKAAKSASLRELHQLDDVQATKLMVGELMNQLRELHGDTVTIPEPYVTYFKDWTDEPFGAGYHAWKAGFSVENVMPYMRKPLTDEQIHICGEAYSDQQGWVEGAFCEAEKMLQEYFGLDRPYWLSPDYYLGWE

purified protein [1] = substrate: N=C(N)NCCC[C@H](N)C(=O)O; assay: purified protein; settings: 100 mM Bis-Tris-HCl pH 7.0, O2 as co-substrate; remark: listed apart in the source
purified protein [2] = substrate: NCCCC[C@H](N)C(=O)O; assay: purified protein; settings: 100 mM Bis-Tris-HCl pH 7.0, O2 as co-substrate
purified protein [3] = substrate: NCCC[C@H](N)C(=O)O; assay: purified protein; settings: 100 mM Bis-Tris-HCl pH 7.0, O2 as co-substrate

AncLLysO (synthetic construct)
Km (N=C(N)NCCC[C@H](N)C(=O)O): 6900 ± 1100 µM | kcat (N=C(N)NCCC[C@H](N)C(=O)O): 11.4 ± 1 s⁻¹ | kcat/Km (N=C(N)NCCC[C@H](N)C(=O)O): 1700 M⁻¹ s⁻¹

Cc1cc2nc3c(=O)[nH]c(=O)nc-3n(C[C@H](O)[C@H](O)[C@H](O)COP(=O)(O)OP(=O)(O)OC[C@H]3O[C@@H](n4cnc5c(N)ncnc54)[C@H](O)[C@@H]3O)c2cc1C [FAD]
X-ray crystal structure, 2.2-2.4 Å (AncLLysO): the Rossmann-core fold, which recognizes FAD

B1: CaLLysO (Chryseobacterium angstadtii) (protein)
chain: MNKNTPLNTGKQPDLKTEVAIIGAGTSGLYTAYRLVTDKKYTASEVQIFDMNDKLGGRLESVIMPGMNFWGELGGMRYLTSQEIVTTLIEGYPLSETDPAKRIPVLKDKMTPVPFPMGDPSKLLMYLRKDRCKQDAWTVAQGEGEKLPTRYYLNDDDFGFSSDQLFNKVIYDVLMADAWVAETYGKKIIKGSSIYDYSFELTSRDWDDIKPKLVYNFPNSPYDQRKVNDLGFWNLLKDQVSQEGYEFLANAGGYYSNTINWNAAEAFPYMVGDFSAGTIYKTIEEGYDSIAYAVANSYMEHEGACIWSKNKLLTFTKDHDLKSTYKYRLTFLNLETNTQWNVYANTLVLAMPRKSLELLDQDNFFFNINENSVLNENIRSVIMEPAFKILMGFPYPWWKELGIDSGHSITDLPMRQCYYFGTDPQTNNSMLLGSYGDMETETFWKALSDDKILFEVKAAKSASLKELHELDDVQATRMMVDELMNQLRELHGEEITIPEPYVTYFKDWTDEPFGAGYHAWKAGFSVENVMPYMRKPVADEQIHIVGEAYSDQQGWVEGAFCEAEKMLQEYFGLNRPIWLNPDYYLGW
Km (purified protein [1]): 340 ± 30 µM | kcat (purified protein [1]): 11.4 ± 0.1 s⁻¹ | kcat/Km (purified protein [1]): 33200 M⁻¹ s⁻¹ | Km (purified protein [2]): 27 ± 3 µM | Km (purified protein [3]): 4400 ± 400 µM | kcat (purified protein [3]): 3.6 s⁻¹ | kcat/Km (purified protein [3]): 810 M⁻¹ s⁻¹
